Measured values as given in patent publication US20100021490A1 (INSTITUT NATIONAL DE LA RECHERCHE AGRONOMIQUE INRA, published 2010).

Target: T1, N protein of measles virus (Edmonston B strain) (measles virus, Edmonston B strain, UniProt P0DXN6 1-525, limits assumed)
T1 construct: The construct is not described; also called measles virus N protein
T1 sequence: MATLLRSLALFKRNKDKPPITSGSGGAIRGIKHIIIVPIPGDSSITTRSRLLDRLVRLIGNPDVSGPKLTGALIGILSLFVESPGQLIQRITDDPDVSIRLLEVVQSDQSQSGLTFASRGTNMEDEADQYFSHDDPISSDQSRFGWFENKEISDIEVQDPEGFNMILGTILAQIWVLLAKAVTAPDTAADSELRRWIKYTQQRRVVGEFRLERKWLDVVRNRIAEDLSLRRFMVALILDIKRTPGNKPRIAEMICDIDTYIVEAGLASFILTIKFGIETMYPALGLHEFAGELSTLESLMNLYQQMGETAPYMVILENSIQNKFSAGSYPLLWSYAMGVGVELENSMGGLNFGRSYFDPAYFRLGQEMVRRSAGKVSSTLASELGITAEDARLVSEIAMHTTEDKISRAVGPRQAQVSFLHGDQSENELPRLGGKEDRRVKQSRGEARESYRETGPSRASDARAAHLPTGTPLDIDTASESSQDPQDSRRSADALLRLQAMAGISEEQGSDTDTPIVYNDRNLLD
Test: coexpression of the P fragment with N, co-purification

B1: PΔ457N (C-terminal fragment of the measles virus P protein with the N-terminal portion deleted up to residue 456 inclusive) (other, not shown: a dimerising Fc or GST)
chain: GPASRSVIRSIIKSSRLEEDRKRYLMTLLDDIKGANDLAKFHQMLMKIIMK
notes: also called measles PΔ457N
binding result: no binding
